According to the supplement of paper PMC10567573:

B1: VPS39 (parent)
chain: ITEEKVCMVCKKKIGNSAFARYPN

Variants of: B1
Assay: protein stability index of a GFP-peptide fusion (GPS, HEK-293T) (PSI 1-6); higher = more stable
Details: c terminus: a fixed tail appended
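Note: lentivirally expressed fusions sorted by FACS into six bins by GFP to DsRed ratio, PSI derived from sequencing read proportions per bin multiplied by bin number.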

Protein stability index of substitutions, site by site:
P23: G 2.7 | C 2.8 | A 2.38 | S 2.56 | I 2.63 | Q 2.26 | L 2.57 | N 2.32 | D 3.19 | M 1.78 | H 2.04 | W 1.75 | E 3.38 | T 2.13 | R 2.49 | K 2.13
Y22: P 2.65 | E 3.55 | W 1.63 | C 2.98 | V 2.38 | A 2.57 | N 2.72 | G 2.64 | D 3.12 | T 2.95 | R 2.35 | I 2.39 | Q 2.77 | K 2.82 | H 2.77 | F 2.31 | M 2.9 | L 2.22 | S 2.81
K13: F 2.28 | R 2.29 | W 1.52 | Y 2.11 | V 1.98 | M 2.07 | T 1.83 | D 2.73 | I 2.02 | S 2.36 | H 2.01 | A 1.7 | Q 2.6 | G 1.35 | E 3.04 | N 2.33 | P 2.27 | L 1.64 | C 2.01
S17: T 2.11 | Y 2.08 | V 3.12 | W 2.14 | L 2.07 | D 2.78 | K 2.1 | F 2.18 | E 3.4 | R 2.62 | N 2.17 | M 2.3 | H 2.54 | G 2.52 | I 3.04 | P 2.47 | A 2.19 | C 2.67 | Q 3.1
I14: S 3.36 | M 3 | V 1.79 | G 2.3 | R 2.67 | T 3.06 | N 2.38 | D 3.48 | W 2.1 | C 2.5 | K 2.49 | A 2.56 | H 4.23 | Q 2.14 | F 2.87 | L 2.41 | P 2.64 | E 2.85 | Y 2.66
N24: V 1.65 | A 2.11 | M 2.06 | F 1.85 | G 1.77 | E 2.05 | T 2.88 | Q 2.52 | H 2.36 | S 2.18 | Y 2.39 | P 2.37 | D 2.6 | I 1.86 | W 1.93 | L 2.27 | K 2.24 | C 2.34
G15: A 1.39 | M 2.23 | T 2.81 | S 2.54 | Y 2 | Q 2.99 | W 2.35 | D 2.46 | K 2.55 | I 2.8 | F 2.35 | E 2.78 | N 2.37 | V 2.86 | P 2.45 | R 2.34 | C 2.98 | H 2.02 | L 2.31
A20: K 2.26 | P 2.62 | F 2.34 | C 2.56 | S 3.16 | R 2.62 | L 2.09 | Y 2.31 | G 2.05 | D 2.62 | E 2.11 | I 3.49 | V 2.38 | Q 2.74 | M 2.43 | T 2.73 | W 2.16 | N 2.32 | H 2.38
R21: M 2.71 | F 2.39 | P 3.02 | N 2.71 | G 2.83 | S 2.58 | V 2.59 | Q 2.75 | T 2.55 | K 2.77 | H 2.99 | E 3.15 | C 2.5 | W 1.94 | A 2.86 | Y 3.13 | D 4.02 | I 2.93 | L 2.45
